Consider six substances from doi:10.1101/085266.

For orientation: stoichiometry N means the number of molecules, sites or subunits per partner or assembly.

For experiment [1], the target named is Kuenenia stuttgartiensis encapsulin without the N-terminal cytochrome domain (Kuenenia stuttgartiensis) (UniProt Q1Q6L7). Briefly: co-purification with encapsulin capsids.
Experiment [2] addresses Streptomyces sp. AA4 hemerythrin cargo with C-terminal His6 tag (Streptomyces sp. AA4). Briefly: SEC. For orientation: Size exclusion chromatography separates by hydrodynamic size, large species first.
Experiment [3] addresses Bacillaceae bacterium MTCC 10057 encapsulin capsid protein (Bacillaceae bacterium MTCC 10057). Briefly: co-purification with encapsulin capsids.
The target in experiment [4] is Bacillaceae bacterium MTCC 10057 Geobac cargo protein with C-terminal His6 tag (Bacillaceae bacterium MTCC 10057). Briefly: SEC.
Experiment [5] has as its target Streptomyces sp. AA4 encapsulin capsid protein (Streptomyces sp. AA4). Briefly: co-purification with encapsulin capsids.

On to “NIR domain (N-terminal cupredoxin domain) of the Kuenenia stuttgartiensis NIR-HAO fusion protein (domain or fragment)”, for which the copies of cargo per 180mer capsid (copies per 180mer capsid) in experiment [1] was found to be 15.

Consider “Streptomyces sp. AA4 hemerythrin cargo with C-terminal His6 tag (natural protein)”, for which, in experiment [2], the stoichiometry N amounted to 2.

As to “Bacillaceae bacterium MTCC 10057 Ferredoxin cargo (Fer), with N-terminal targeting peptide (natural protein)”, the molecules of cargo per 180 subunit capsid (molecules per 180 subunit capsid) in experiment [3] turned out to be 10.

The substance “Bacillaceae bacterium MTCC 10057 Geobac cargo protein, with C-terminal targeting peptide (natural protein)” had a molecules of cargo per 180 subunit capsid (molecules per 180 subunit capsid) in experiment [3] of 150.

On to “Bacillaceae bacterium MTCC 10057 Geobac cargo protein with C-terminal His6 tag (natural protein)”, for which the stoichiometry N in experiment [4] amounted to 2.

“Streptomyces sp. AA4 hemerythrin cargo (Heme), with C-terminal targeting peptide (natural protein)” registered a molecules of cargo per 60 subunit capsid (molecules per 60 subunit capsid) in experiment [5] of 20.
